According to patent publication US20140120109A1 (Regeneron, published 2014):

Target: T1, human TL1A, soluble, CHO-expressed, residues 72-251 of SEQ ID NO:244 with N-terminal His6-tag (human, UniProt O95150 72-251)
T1 construct: also called hTL1A; hTL1A (CHO)
T1 sequence: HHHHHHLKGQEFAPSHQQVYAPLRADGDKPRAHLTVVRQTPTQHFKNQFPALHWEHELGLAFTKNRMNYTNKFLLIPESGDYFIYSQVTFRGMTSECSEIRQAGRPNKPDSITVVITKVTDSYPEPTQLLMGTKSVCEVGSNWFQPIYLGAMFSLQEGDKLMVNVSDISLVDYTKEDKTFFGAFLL
Assay: SPR 25C, mAb captured; kd set at 1e-6 1/s
Experimental: Measurements were conducted on a T100 BIACORE™ instrument. […] Kinetic association (kₐ) and dissociation (kd) rate constants were determined by fitting the data to a 1:1 binding model using BIAevaluation 4.1 curve fitting software (BIAcore Life Sciences). Molar concentrations of TL1A/Fhm used in the data fitting assumed a monomeric state for TL1A in solution. Binding dissociation equilibrium constants (KD) and dissociative half-lives (t_{1/2}) were calculated from the kinetic rate constants as: KD (M)=kd/kₐ; and t_{1/2} (min)=[In2/(60*kd)].

t1/2: ≥ 192 h
B1: H4H1750P (antibody, human IgG4 S228P, V domains shown)
VH: QVQLVESGGGVVQPGRSLRLSCVASGFTFSNYGMHWVRQAPGKGLEWVAVISYDGNNDLYSDSVKGRFTISRDNAKNALSLQMTSLRAEDTAVYYCARDSTMTPYYYHGIDVWGQGTTVTVSA
VL: DIQMTQSPSSLSASVGDRVTITCRASQDIRNDLGWYQQKPGKAPKRLIYAASSLQSGVPSRFSGSGSGTDFTLTISSLQPEDFATYYCLQHNSYPPTFGQGTKVEIK
